For the test, the target named is urotensin II receptor (human) (UniProt Q9UKP6). Nature of the test: cell-based or functional assay.
Chain of UniProt Q9UKP6 (Q9UKP6 whole entry): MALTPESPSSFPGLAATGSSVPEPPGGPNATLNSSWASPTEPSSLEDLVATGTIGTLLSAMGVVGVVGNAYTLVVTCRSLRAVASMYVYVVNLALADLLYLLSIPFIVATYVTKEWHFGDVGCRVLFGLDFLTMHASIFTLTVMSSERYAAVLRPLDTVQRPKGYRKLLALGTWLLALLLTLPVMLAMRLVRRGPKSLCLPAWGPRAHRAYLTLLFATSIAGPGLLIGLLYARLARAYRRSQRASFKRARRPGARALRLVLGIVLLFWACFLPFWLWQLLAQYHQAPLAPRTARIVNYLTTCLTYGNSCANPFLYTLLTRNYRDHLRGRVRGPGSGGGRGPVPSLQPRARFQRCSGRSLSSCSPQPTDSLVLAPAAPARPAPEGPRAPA

“urotensin II (from UniProt O95399 114-124) (peptide)” gave a CTGF mRNA (real-time PCR, GAPDH mRNA as reference) in human heart fibroblasts after 6 h with 1 µM urotensin II; control 0.45 +/- 0.27 (relative to GAPDH mRNA) of 0.88; a Col 1 mRNA (real-time PCR, GAPDH mRNA as reference) in human heart fibroblasts after 6 h with 1 µM urotensin II; control 0.56 +/- 0.1 (relative to GAPDH mRNA) of 0.92; an MMP 2 mRNA (real-time PCR, GAPDH mRNA as reference) in human heart fibroblasts after 6 h with 1 µM urotensin II; control 0.43 +/- 0.2 (relative to GAPDH mRNA) of 0.65; a TGFbeta1 mRNA (real-time PCR, GAPDH mRNA as reference) in human heart fibroblasts after 6 h with 1 µM urotensin II; control 0.60 +/- 0.09 (relative to GAPDH mRNA) of 0.81.

The values are drawn from patent US20030100484A1.
